Experimental data published in the RNAGym collection of RNA variant scans (doi:10.7554/elife.90254).

B1: OR4K15 (parent)
chain: GUUAACGGUCAUAGGCCAUGGAAACUAGGAGCACCAUUUCGCUGCCAGUGAAGAAAUGAACAAAGAAAAUCUGGGCCAGGCAGGCAUCAAAAGAAAUAGUCUUGCGCUCAACCAGAAAGUCUGUAAUCAUUUUAAGGGUA

Variants of: B1
Assay: self-cleavage, relative activity (ratio to wild type); higher = more cleavage; in vitro, sequencing; the parent is a self-cleaving ribozyme

Question: For GUUAACGGUCAUAGGCCAUGGAAACUAGGAGCACCAUUUCGCUGCCAGUGAAGAAAUGAACAAAGAAAAUCUGGGCCAGGCGGGCAUCAAAAGAAAUAGUCUCGCGCUCAACCAGAAAGUCUGUAAUCAUUUUAAGGGUA [A82G U103C], which self-cleavage is on record?
Answer: 2.05

Question: Which self-cleavage does the source give for GUUAACGGUCAUAGGCCAUGGAAACUAGGAGCACCAUUUCGCUGCCAGUGAAGAAAUGAACAAAGAAAAUCUGGGCCAGGCGGGCAUCAAAAGAAAUAGUCUUGCGCUCAACCAGAAAGUCUGUAAUUAUUUUAAGGGUA [A82G C128U] here?
Answer: 0.33

Question: For GUUAACGGUCAUAGGCCAUGGAAACUAGGAGCACCAUUUCGCUGCCAGUGAAGAAAUGAACAAAGAAAAUCUGGGCCAGGCGGGCAUCAAAAGAAAUAGUCUUGCGCACAACCAGAAAGUCUGUAAUCAUUUUAAGGGUA [A82G U108A], which self-cleavage is on record?
Answer: 0.04

Question: With GUUAACGGUCAUAGGCCAUGGAAACUAGGAGCACCAUUUCGCUGCCAGUGAAGAAAUGAACAAAGAAAAUCUGGGCCAGGCGGGCAUCAAAAGAAAUAGUCUUGCGCCCAACCAGAAAGUCUGUAAUCAUUUUAAGGGUA [A82G U108C] as the variant, how does the self-cleavage read?
Answer: 0.02

Question: Which self-cleavage does the source give for GUUAACGGUCAUAGGCCAUGGAAACUAGGAGCACCAUUUCGCUGCCAGUGAAGAAAUGAACAAAGAAAAUCUGGGCCAGGCGGGCAUCAAAAGAAAUAGUCUUGCGCUCAACCAGAAAGUCUAUAAUCAUUUUAAGGGUA [A82G G123A] here?
Answer: 0.75

Question: For GUUAACGGUCAUAGGCCAUGGAAACUAGGAGCACCAUUUCGCUGCCAGUGAAGAAAUGAACAAAGAAAAUCUGGGCCAGGCGGGCAUCAAAAGAAAUAGUCUUGCGCUCAACCAGAACGUCUGUAAUCAUUUUAAGGGUA [A82G A118C], which self-cleavage is on record?
Answer: 0.28

Question: Which self-cleavage does the source give for GUUAACGGUCAUAGGCCAUGGAAACUAGGAGCACCAUUUCGCUGCCAGUGAAGAAAUGAACAAAGAAAAUCUGGGCCAGGCGGGCAUCAAAAGAAAUAGUCUUGCGCUCAACCAGAAAGUCUGUACUCAUUUUAAGGGUA [A82G A126C] here?
Answer: 0.41

Question: Which self-cleavage does the source give for GUUAACGGUCAUAGGCCAUGGAAACUAGGAGCACCAUUUCGCUGCCAGUGAAGAAAUGAACAAAGAAAAUCUGGGCCAGGCGGGCAUCAAAAGAAAUAGUCUUGCGCUCAACCAGAAAGUCUGUAAUCAUUUUAAAGGUA [A82G G136A] here?
Answer: 0.9

Question: Which self-cleavage does the source give for GUUAACGGUCAUAGGCCAUGGAAACUAGGAGCACCAUUUCGCUGCCAGUGAAGAAAUGAACAAAGAAAAUCUGGGCCAGGCGGGCAUCAAAAGAAAUAGUCUUGCCCUCAACCAGAAAGUCUGUAAUCAUUUUAAGGGUA [A82G G106C] here?
Answer: 0.01

Question: Which self-cleavage does the source give for GUUAACGGUCAUAGGCCAUGGAAACUAGGAGCACCAUUUCGCUGCCAGUGAAGAAAUGAACAAAGAAAAUCUGGGCCAGGCGGGCAUCAAAAGAAAUAGUCUUGCACUCAACCAGAAAGUCUGUAAUCAUUUUAAGGGUA [A82G G106A] here?
Answer: 0.01

Question: For GUUAACGGUCAUAGGCCAUGGAAACUAGGAGCACCAUUUCGCUGCCAGUGAAGAAAUGAACAAAGAAAAUCUGGGCCAGGCGGGCAUCAAAAGAAAUAGUCUUGCGCUCAACCAGAAAGUCUGAAAUCAUUUUAAGGGUA [A82G U124A], which self-cleavage is on record?
Answer: 0.32

Question: With GUUAACGGUCAUAGGCCAUGGAAACUAGGAGCACCAUUUCGCUGCCAGUGAAGAAAUGAACAAAGAAAAUCUGGGCCAGGCGGGCAUCAAAAGAAAUAGUCUUGCGCUCAACCAGAAAGUCUGUAAUCAUUUUAGGGGUA [A82G A135G] as the variant, how does the self-cleavage read?
Answer: 0.58

Question: For GUUAACGGUCAUAGGCCAUGGAAACUAGGAGCACCAUUUCGCUGCCAGUGAAGAAAUGAACAAAGAAAAUCUGGGCCAGGCGGGCAUCAAAAGAAAUAGUCUUGCGCUCAACCAGAAAGUCUGUAAUCAUUUUAAGGAUA [A82G G138A], which self-cleavage is on record?
Answer: 0.49

Question: Which self-cleavage does the source give for GUUAACGGUCAUAGGCCAUGGAAACUAGGAGCACCAUUUCGCUGCCAGUGAAGAAAUGAACAAAGAAAAUCUGGGCCAGGCGGGCAUCAAAAGAAAUAGACUUGCGCUCAACCAGAAAGUCUGUAAUCAUUUUAAGGGUA [A82G U100A] here?
Answer: 0.25

Question: With GUUAACGGUCAUAGGCCAUGGAAACUAGGAGCACCAUUUCGCUGCCAGUGAAGAAAUGAACAAAGAAAAUCUGGGCCAGGCGGGCAUCAAAAGAAAUAGUCUUGCGCUCAACUAGAAAGUCUGUAAUCAUUUUAAGGGUA [A82G C113U] as the variant, how does the self-cleavage read?
Answer: 0.05

Question: For GUUAACGGUCAUAGGCCAUGGAAACUAGGAGCACCAUUUCGCUGCCAGUGAAGAAAUGAACAAAGAAAAUCUGGGCCAGGCGGGCAUCAAAAGAAAUAGUCUUGCGCUCAACCAGAAAGUCUGUAAUCUUUUUAAGGGUA [A82G A129U], which self-cleavage is on record?
Answer: 0.22

Question: Which self-cleavage does the source give for GUUAACGGUCAUAGGCCAUGGAAACUAGGAGCACCAUUUCGCUGCCAGUGAAGAAAUGAACAAAGAAAAUCUGGGCCAGGCGGGCAUCAAAAGAAAUAGUCUUGCGCUCAACCAGAAAGUCUGUAAACAUUUUAAGGGUA [A82G U127A] here?
Answer: 0.58

Question: For GUUAACGGUCAUAGGCCAUGGAAACUAGGAGCACCAUUUCGCUGCCAGUGAAGAAAUGAACAAAGAAAAUCUGGGCCAGGCGGGCAUCAAAAGAAAUAGUCUUGCGCUCAACCAGAAAGUCUGUAAUCAUUUUGAGGGUA [A82G A134G], which self-cleavage is on record?
Answer: 0.54

Question: With GUUAACGGUCAUAGGCCAUGGAAACUAGGAGCACCAUUUCGCUGCCAGUGAAGAAAUGAACAAAGAAAAUCUGGGCCAGGCGGGCAUCAAAAGAAAUAGUCUUGCGCUCAACCAGAAAGCCUGUAAUCAUUUUAAGGGUA [A82G U120C] as the variant, how does the self-cleavage read?
Answer: 0.11

Question: For GUUAACGGUCAUAGGCCAUGGAAACUAGGAGCACCAUUUCGCUGCCAGUGAAGAAAUGAACAAAGAAAAUCUGGGCCAGGCGGGCAUCAAAAGAAAUAGUCUUGCGCUCAACCAGAAAGUCAGUAAUCAUUUUAAGGGUA [A82G U122A], which self-cleavage is on record?
Answer: 0.11

Question: With GUUAACGGUCAUAGGCCAUGGAAACUAGGAGCACCAUUUCGCUGCCAGUGAAGAAAUGAACAAAGAAAAUCUGGGCCAGGCGGGCAUCAAAAGAAAUAGUCUUGCGCUCAACCAGAAAGUUUGUAAUCAUUUUAAGGGUA [A82G C121U] as the variant, how does the self-cleavage read?
Answer: 0.91
